Results: patent US20080199851A1

Molecular target: Inactivated influenza H5N1, Ck HK Yu22/02 (Influenza A virus Ck/HK/Yu22/02 (H5N1))
Assay: cell-based or functional assay

B1: 10F7 single chain antibody (scFv)
scFv: QVQLQQPGAELVKPGASVKLSCKASGYTFTSYWMHWVKQRPGQGLEWIGEIDPSDSYTNYNQKFKGKATLTVDKSSSTAYMQLSSLTSEDSAVYYCARGGTGDFHYAMDYWGQGTSVTVSSGGGGSDILMTQSPSSMSVSLGDTVSITCHASQGISSNIGWLQQKPGKSFKGLIYHGTNLEDGVPSRFSGSGSGADYSLTISSLESEDFADYYCVQYVQFPYTFGGGTKLEIKR
- neutralization: dilution of 10F7 scFv (fold dilution): 64
